Laboratory results from patent US7897569B2, “Use of HMGB fragments as anti-inflammatory agents” (The Feinstein Institute for Medical Research, priority 2001, dated 2011).

Legend:
RAW 264.7 cells [1] = assay: TNF mRNA expression in RAW 264.7 cells (RNase protection assay); type: cell-based, murine; settings: 10 μg/ml
Protocol: The kinetics of B box-induced TNF release was also examined. TNF release and TNF mRNA expression was measured in RAW 264.7 cells induced by B box polypeptide or GST tag polypeptide only used as a control (vector) (10 μg/ml) for 0 to 48 hours. Supernatants were analyzed for TNF protein levels by an L929 cytotoxicity assay (N=3-5) as described herein. For mRNA measurement, cells were plated in 100 mm plate and treated in Opti-MEM I medium containing B box polypeptide or the vector alone for 0, 4, 8, or 24 hours, as indicated in FIG. 2D. The vector only sample was assayed at the 4 hour time point. Cells were scraped off the plate and total RNA was isolated by RNAzol B method in accordance with the manufacturer's instructions (Tel-Test “B”, Inc., Friendswood, Tex.). TNF (287 bp) was measured by RNase protection assay (Ambion, Austin, Tex.). Equal loading and the integrity of RNA was verified by ethidium bromide staining of the RNA sample on agarose-formaldehyde gel. […] TNF mRNA expression was maximal at 4 hours and decreased at 8 and 24 hours. […] A similar study was carried out measuring TNF protein released from RAW 264.7 cells 0, 4, 8, 24, 32 or 48 hours after administration of B box or vector only (GST tag), using the L929 cytotoxicity assay described herein. […] Data are representative of three separate experiments.

[2] = test system: D-galactosamine-sensitized Balb/c mice; assay: Histology and serum cytokines in D-galactosamine-sensitized Balb/c mice; type: in vivo
Protocol: To further assess the lethality of the HMGB1 B box protein in vivo the HMGB1 B box was again administered to D-galactosamine-sensitized Balb/c mice. Mice (3 per group) received D-gal (20 mg/mouse) plus B box or vector (1 mg/mouse) intraperitoneally for 7 hours and were then sacrificed by decapitation. Blood was collected, and organs (liver, heart, kidney and lung) were harvested and fixed in 10% formaldehyde. Tissue sections were prepared with hematoxylin and eosin staining for histological evaluation (Criterion Inc., Vancouver, Canada). The results of these studies are shown in FIGS. 7A-7J, which are scanned images of hematoxylin and eosin stained kidney sections (FIG. 7A), myocardium sections (FIG. 7C), lung sections (FIG. 7E), and liver sections (FIGS. 7G and 7I) obtained from an untreated mouse and kidney sections (FIG. 7B), myocardium sections (FIG. 7D), lung sections (FIG. 7F), and liver sections (FIGS. 7H and 7J) obtained from mice treated with the HMGB1 B box. […] In FIG. 7J, hepatocyte dropouts are seen surrounded by accumulated polymorphonuclear leukocytes. The arrows in FIG. 7J point to the sites of polymorphonuclear accumulation (dotted) or apoptotic hepatocytes (solid).

RAW 264.7 cells [3] = assay: 125I-HMGB1 cell surface binding to RAW 264.7 cells; parameters: species or system murine; settings: 4° C.
Protocol: Purified HMGB1 protein (10 μg) was radiolabeled with 0.2 mCi of carrier-free ^125I (NEN Life Science products Inc., Boston, Mass.) using Iodo-beads (Pierce, Rockford, Ill.) according to the manufacturer's instructions. ^125I-HMGB1 protein was separated from un-reacted ^125I by gel chromatography columns (P6 Micro Bio-Spin Chromatography Columns, Bio-Rad Laboratories, Hercules, Calif.) previously equilibrated with 300 mM sodium chloride, 17.5 mM sodium citrate, pH 7.0 and 0.1% bovine serum albumin (BSA). The specific activity of the eluted HMGB1 was about 2.8×10^6 cpm/μg protein. […] The radioactivity in the lysate was then measured using a gamma counter. Specific binding was determined as total binding minus the radioactivity obtained in the presence of an excess amount of unlabeled HMGB1 or A box proteins.
To determine whether the HMGB1 A box acts as an antagonist by displacing HMGB1 binding, ^125I-labeled-HMGB1 was added to macrophage cultures and binding was measured at 4° C. after 2 hours. […] The specificity of binding was assessed as described in Example 1.
In addition, ^125I-HMG-1 binding was measured in RAW 264.7 cells plated on 24-well dishes and incubated with ^125I HMGB1 alone or in the presence of unlabeled HMGB1 or A box. […] The data are expressed as the percent of total counts obtained in the absence of unlabeled HMGB1 proteins (2,382,179 CPM/well).

[4] = 1 mg/mouse ip plus D-gal, 7 hours

B1: B box: Human HMGB1 mutant containing only the B box, SEQ ID NO:20 (protein)
chain: FKDPNAPKRLPSAFFLFCSEYRPKIKGEHPGLSIGDVAKKLGEMWNNTAADDKQPYEKKAAKLKEKYEKDIAAY
Question: Which results are given for B1?
Answer: time of maximal TNF mRNA expression (RAW 264.7 cells [1]): 4 h; TNF mRNA expression (RAW 264.7 cells [1]; 0-24 hours (vector at 4 hours)): increased significantly; histology of heart [2, 4]: some ischemic changes and loss of cross striation in myocardial fibers; histology of kidneys and lungs [2, 4]: no abnormality; histology of liver [2, 4]: active hepatitis; serum levels of IL-1β ([2]; B box in vivo, Balb/c mice): 15+3 pg/ml; serum levels of IL-6 ([2]; B box in vivo, Balb/c mice): 315+93 pg/ml

B2: HMGB1: Recombinant full length human HMGB1, GST fusion system, SEQ ID NO:18; recombinant rat HMGB1 used in some experiments (protein)
chain: MGKGDPKKPTGKMSSYAFFVQTCREEHKKKHPDASVNFSEFSKKCSERWKTMSAKEKGKFEDMAKADKARYEREMKTYIPPKGETKKKFKDPNAPKRLPSAFFLFCSEYRPKIKGEHPGLSIGDVAKKLGEMWNNTAADDKQPYEKKAAKLKEKYEKDIAAYRAKGKPDAAKKGVVKAEKSKKKKEEEEDEEDEEDEEEEEDEEDEEDEEEDDDDE
modifications: GST fusion
notes: recombinant rat HMGB1 used in some experiments
Question: How did the 125I-HMGB1 binding kinetics (RAW 264.7 cells [3]; RAW 264.7 cells) turn out when B2 was run?
Answer: saturable first order binding kinetics

B3: A box: Human HMGB1 mutant containing only the A box, SEQ ID NO:21 (A box SEQ ID NO:22) (protein)
chain: MGKGDPKKPTGKMSSYAFFVQTCREEHKKKHPDASVNFSEFSKKCSERWKTMSAKEKGKFEDMAKADKARYEREMKTYIPPKGET
Question: With B3 as the molecule, how does the “displacement of 125I-HMGB1 binding” value (RAW 264.7 cells [3]; 5,000 molar excess unlabeled A box, 2 hours) read?
Answer: competitive antagonist of HMGB1 activity in vitro
